Results on 20 molecules are retold here after PMC4994030 (Scientific Reports, 2016).

To fix the notation:
B1: GH2-42 scFv (scFv, V domains shown)
VH: EVQLVESGGGLVQPGGSLRLSCAASGFTISNWGIHWVRQAPGKGLEWVAGIGPYGGYTSYADSVKGRFTISADTSKNTAYLQMNSLRAEDTAVYYCARFGFYFDGIMDYWGQGTLVTVSS
VL: DIQMTQSPSSLSASVGDRVTITCRASQDVSSGVAWYQQKPGKAPKLLISGPTGLYSGVPSRFSGSGSGTDFTLTISSLQPEDFATYYCQQYYDWPLTFGQGTKVKRG
notes: also called scFv(GH2-42); source: E. coli ER2738, secreted, in filtered culture supernatant
B2: GH2-72 scFv (scFv, V domains shown)
VH: EVQLVESGGGLVQPGGSLRLSCAASGFTISNGGIHWVRQAPGKGLEWVAYIWPSGGYTFYADSVKGRFTISADTSKNTAYLQMNSLRAEDTAVYYCARFFNNDWIGMDYWGQGTLVTVSS
VL: DIQMTQSPSSLSASVGDRVTITCRASQDVGYFVAWYQQKPGKAPKLLISGTTWLYSGVPSRFSGSGSGTDFTLTISSLQPEDFATYYCQQYSNWPLTFGQGTKVEIK
notes: source: E. coli ER2738, secreted, in filtered culture supernatant
B3: GH2-26 scFv (scFv, V domains shown)
VH: EVQLVESGGGLVQPGGSLRLSCAASGFTISDYGIHWVRQAPGKGLEWVAFIGPYWGYTYYADSVKGRFTISADTSKNTAYLQMNSLRAEDTAVYYCARFYFFGDGLMDYWGQGTLVTVSS
VL: DIQMTQSPSSLSASVGDRVTITCRASQDVSSGVAWYQQKPGKAPKLLIYGTSSLYSGVPSRFSGSGSGTDFTLTISSLQPEDFATYYCQQYFNWPITFGQGTKVEIK
notes: as for B2
B4: GH2-103 scFv (scFv, V domains shown)
VH: EVQLVESGGGLVQPGGSLRLSCAASGFTIDEYGIHWVRQAPGKGLEWVAFIGPYWGYTSYADSVKGRFTISADTSKNTAYLQMNSLRAEDTAVYYCARFGHLHDGLMDYWGQGTLVTVSS
VL: DIQMTQSPSSLSASVGDRVTITCRASQDVFSGVAWYQQKPGKAPKLLISGTPFLYSGVPSRFSGSGSGTDFTLTISSLQPEDFATYYCQQYYNWPITFGQGTKVEIK
notes: as for B2
B5: GH2-38 scFv (scFv, V domains shown)
VH: EVQLVESGGGLVQPGGSLRLSCAASGFTISDGGIHWVRQAPGKGLEWVAGIGPYGGYTSYADSVKGRFTISADTSKNTAYLQMNSLRAEDTAVYYCARFGDNFIGVMDYWGQGTLVTVSS
VL: DIQMTQSPSSLSASVGDRVTITCRASQDVFGGVAWYQQKPGKAPKLLIYGPSYLYSGVPSRFSGSGSGTDFTLTISSLQPEDFATYYCQQYSSWPITFGQGTKVEIK
notes: as for B2
B6: GH2-101 scFv (scFv, V domains shown)
VH: EVQLVESGGGLVQPGGSLRLSCAASGFTINSYGIHWVRQAPGKGLEWVASIGPYWGYTSYADSVKGRFTISADTSKNTAYLQMNSLRAEDTAVYYCARFYIWFDGLMDYWGQGTLVTVSS
VL: DIQMAQSPSSLSASVGDRVTITCRASQDVSNGVAWYQQKPGKAPKLLIYGTTSLYSGVPSRFSGSGSGTDFTLTISSLQPEDFATYYCQQYYSWPLTFGQGTKVEIK
notes: as for B2
B7: GH2-62 scFv (scFv, V domains shown)
VH: EVQLVESGGGLVQPGGSLRLSCAASGFTINNWGIHWVRQAPGKGLEWVAGIWPFGGYTYYADSVKGRFTISADTSKNTAYLQMNSLRAEDTAVYYCARFDYLNNGGMDYWGQGTLVTVSS
VL: DIQMTQSPSSLSASVGDRVTITCRASQDVGGYVAWYQQKPGKAPKLLIFGASGLYSGVPSRFSGSGSGTDFTLTISSLQPEDFATYYCQQFYSSPLTFGQGTKVEIK
notes: as for B2
B8: GH2-102 scFv (scFv, V domains shown)
VH: EVQLVESGGGLVQPGGSLRLSCAASGFTINGGGIHWVRQAPGKGLEWVASIGPYGGYTSYADSVKGRFTISADTSKNTAYLQMNSLRAGDTAVYYCARFGHHYDGHMDYWGQGTLVTVSS
VL: DIQMTQSPSSLSASVGDRVTITCRASQDVGSNVAWYQQKPGKAPKLLIYGAPYLYSGVPSRFSGSGSGTDFTLTISSLQPEDFATYYCQQYYNWPLTFGQGTKVEIK
notes: as for B2
B9: GH2-31 scFv (scFv, V domains shown)
VH: EVQLVESGGGLVQPGGSLRLSCAASGFTINNFGIHWVRQAPGKGLEWVASIGPFWGYTSYADSVKGRFTISADTSKNTAYLQMNSLRAEDTAVYYCARFGNDYDGVMDYWGQGTLVTVSS
VL: DIQMTQSPSSLSASVGDRVTITCRASQDVSWGVAWYQQKPGKAPKLLIYSPPWLYSGVPSRFSGSGSGTDFTLTISSLQPEDFATYYCQQYYNWPITFGQGTKVEIK
notes: as for B2
B10: GH2-61 scFv (scFv, V domains shown)
VH: EVQLVESGGGLVQPGGSLRLSCAASGFTINNWGIHWVRQAPGKGLEWVAGIWPYGGYTYYADSVKGRFTISADTSKNTAYLQMNSLRAEDTAVYYCARFYNHHGGVMDYWGQGTLVTVSS
VL: DIQMTQSPSSLSASVGDRVTITCRASQDVGSNVAWYQQKPGKAPKLLISWSTSLYSGVPSRFSGSGSGTDFTLTISSLQPEDFATYYCQQYGGWPITFGQGTKVEIK
notes: also called scFv(GH2-61); source: E. coli ER2738, secreted, in filtered culture supernatant
B11: GH2-24 scFv (scFv, V domains shown)
VH: EVQLVESGGGLVQPGGSLRLSCAASGFTIDNGSIHWVRQAPGKGLEWVAFIGPSGGYTFYADSVKGRFTISADTSKNTAYLQMNSLRAEDTAVYYCARFGWHNVDNMDYWGQGTLVTVSS
VL: DIQMTQSPSSLSASVGDRVTITCRASQDVGWGVAWYQQKPGKAPKLLISSTRSLYSGVPSRFSGSGSGTDFTLTISSLQPEDFATYYCQQYYNWPLTFGQGTKVEIK
notes: as for B2
B12: GH2-40 scFv (scFv, V domains shown)
VH: EVQLVESGGGLVQPGGSLRLSCAASGFTINSWGIHWVRQAPGKGLEWVAWIGPYWGFTSYADSVKGRFTISADTSKNTAYLQMNSLRAEDTAVYYCARFDGHFDGVMDYWGQGTLVTVSS
VL: DIQMTQSPSSLSASVGDRVTITCRASQDVNNGVAWYQQKPGKAPKLLISGTPWLYSGVPSRFSGSGSGTDFTLTISSLQPEDFATYYCQQYFDWPLTFGQGTKVEIK
notes: as for B2
B13: GH2-11 scFv (scFv, V domains shown)
VH: EVQLVESGGGLVQPGGSLRLSCAASGFTINDWGIHWVRQAPGKGLEWVAGIGPYGGYTSYADSVRGRFTISADTSKNTAYLQMNSLRAEDTAVYYCARFVNWDFYGMDYWGQGTLVTVSS
VL: DIQMTQSPSSLSASVGDRVTITCRASQDVGDGVAWYQQKPGKAPKLLIYSAGWLYSGVPSRFSGSGSGTDFTLTISSLQPEDFATYYCQQYYSYPITFGQGTKVEIK
notes: as for B2
B14: GH2-107 scFv (scFv, V domains shown)
VH: EVQLVESGGGLVQPGGSLRLSCAASGFTISNFGIHWVRQAPGKGLEWVAYIGPYGGYTSYADSVKGRFTISADTSKNTAYLQMNSLRAEDAAVYYCARFHIHNLWGMDYWGQGTLVTVSS
VL: DIQMTQSPSSLSASVGDRVTITCRASQDVSDGVAWYQQKPGKAPKLLISGAGYLYSGVPSRFSGSGSGTDFTLTISSLQPEDFATYYCQQFYSWPITFGQGTKVEIK
notes: as for B2
B15: GH2-75 scFv (scFv, V domains shown)
VH: EVQLVESGGGLVQPGGSLRLSCAASGSTIGNSGIHWVRQAPGKGLEWVAYIGPYGGYTSYADSVKGRFTISADTSKNTAYLQMNSLRAEDTAVYYCARFDDYHWDGMDYWGQGTLVTVSS
VL: DIQMTQSPSSLSASVGDRVIITCRASQDVSGYVAWYQQKPGKAPKLLIYSSGVPSRFSGSGSGTDFTLTISSLQPEDFATYYCQQYYNWPVTFGQGTKVEIK
notes: also called scFv(GH2-75); source: E. coli ER2738, secreted, in filtered culture supernatant
B16: GH2-92 scFv (scFv, V domains shown)
VH: EVQLVESGGGLVQPGGSLRLSCAASGFTIGNWGIHWVRQAPGKGLEWVASIGPFWGYTFYADSVKGRFTISADTSKNTAYLQMNSLRAEDTAVYYCARFGNHYDGIMDYWGQGTLVTVSS
VL: DIQMTQSPSSLSASVGDRVTITCRASQDVNDGVAWYQQKPGKAPKLLIFGSPYLFSGVPSRFSGSGSGTDFTLTISSLQPEDFATYYCQQYFSWPITFGQGTQVGIK
notes: as for B2
B17: GH2-4 scFv (scFv, V domains shown)
VH: EVQLVESGGGLVQPGGSLRLSCAASGFTINSGSIHWVRQAPGKGLEWVAFIGPFGGYTSYADSVKGRFTISADTSKNTAYLQMNSLRAEDTAVYYCARFGWNDYDFMDYWGQGTLVTVSS
VL: DIQMTQSPSSLSASVGDRVTITCRASQDVFGGVAWYQQKPGKAPKLLIYSASFLYSGVPSRFSGSGSGTDFTLTISSLQPEDFATYYCQQYFDWPITFGQGTKVEIK
notes: as for B2
B18: GH2-12 scFv (scFv, V domains shown)
VH: EVQLVESGGGLVQPGGSLRLSCAASGFTINDWGIHWVRQAPGKGLEWVAGIWPYWGYTSYADSVKGRFTISADTSKNTAYLQMNSLRAEDTAVYYCARYHVYFWWMDYWGQGTLVTVSS
VL: DIQMTQSPSSLSASVGDRVTITCRASQDVSNNVAWYQQKPGKAPKLLIYGPSFLYSGVPSRFSGSGSGTDFTLTISSLQPEDFATYYCQQYYNYPITFGQGTKVEIK
notes: as for B2
B19: GH2-55 scFv (scFv, V domains shown)
VH: EVQLVESGGGLVQPGGSLRLSCAASGFTIDGFSIHWVRQAPGKGLEWVAGIGPYGGYTSYADSVKGRFTISADTSKNTAYLQMNSLRAEDTAVYYCARFDIWHNFGMDYWGQGTLVTVSS
VL: DIQMTQSPSSLSASVGDRVTITCRASQDVDGNVAWYQQKPGKAPKLLISSAGSLYSGVPSRFSGSGSGTDFTLTISSLQPEDFATYYCQQSWSWPLTFGQGTKVEIK
notes: as for B2
B20: GH2-8 scFv (scFv, V domains shown)
VH: GVQLVESGGGLVQPGGSLRLSCAASGFTIGSSGIHWVRQAPGKGLEWVAGIWPYWGSTYYADSVKGRFTISADTSKNTAYLQMNSLRAEDTAVYYCARFGVGYHYYMDYWGQGTLVTVSS
VL: DIQMTQSPSSLSASVGDRVTITCRASQDVGWWVAWYQQKPGKAPKLLISGATGLYSGVPSRFSGSGSGTDFTLTISSLQPEDFATYYCQQSWDSPITFGQGTKVEIK
notes: as for B2

The assay addresses T1, HER2-ECD (human epidermal growth factor receptor 2, extracellular domain) (Homo sapiens, UniProt P04626).
T1 construct: also called HER-ECD
Put plainly: ELISA. The following applies: one partner purified. (In an ELISA, binding on a coated surface is turned into a signal by an enzyme label.)
In the case of B1, the binding result is recorded as “binds”. With B2, the binding result is given as “binds”. On to B3, for which the binding result is reported as “binds”.

B4: the binding result is recorded as “binds”. The value for B5 was “binds”; that for B6 was “binds”; that for B7 was “binds”. On to B8, for which the binding result is listed as “binds”. Take B9: the binding result was “binds”. Turning to B10, the binding result is recorded as “binds”.

Consider B11, for which the binding result is given as “binds”.

Regarding B12, the binding result was “binds”.

For the molecule B13, the binding result was “binds”. In the case of B14, the binding result is “binds”.

On to B15, for which the binding result is on record as “binds”. For B16 the value was “binds”; for B17, “binds”. Turning to B18, the binding result was “binds”. For B19 the value was “binds”; for B20, “binds”.
